Test results published in publication PMC5394417, “Investigating the molecular mechanism of positive and negative allosteric modulators in the calcium-sensing receptor dimer” (Scientific Reports, 2017).

Target: the molecule itself
Test: FRET or BRET; TR-FRET dimerization assay on transiently transfected HEK293T cells co-expressing an HA-tagged and a myc-tagged construct (1:1); Tb3+-conjugated anti-HA antibody (donor, 1 nM) and d2-conjugated anti-myc antibody (acceptor, 50 nM), 24 h at 4 °C; HBSS, 20 mM HEPES, 0.5 mM CaCl2, 0.5 mM MgCl2, 5 mg/mL bovine serum albumin, pH 7.4; FRET ratio (665 nm/615 nm) normalized to pEGFPN1

Protein | fold increase in FRET signal [fold]
rat calcium-sensing receptor, wild type (receptor, UniProt P48442 20-1079, looked up, calcium-sensing receptor (CaSR), rat; Each copy carries one tag only, HA or myc; the two differently tagged copies were co-expressed; The mGluR5 signal peptide stands upstream of the tag; also called CaSR; WT HA-CaSR; source: HEK293T, transiently transfected (Lipofectamine 2000), on cells; not shown: HA (one copy), N-terminal, kept; myc (the other copy), N-terminal, kept) YGPDQRAQKKGDIILGGLFPIHFGVAAKDQDLKSRPESVECIRYNFRGFRWLQAMIFAIEEINSSPSLLPNMTLGYRIFDTCNTVSKALEATLSFVAQNKIDSLNLDEFCNCSEHIPSTIAVVGATGSGVSTAVANLLGLFYIPQVSYASSSRLLSNKNQYKSFLRTIPNDEHQATAMADIIEYFRWNWVGTIAADDDYGRPGIEKFREEAEERDICIDFSELISQYSDEEEIQQVVEVIQNSTAKVIVVFSSGPDLEPLIKEIVRRNITGRIWLASEAWASSSLIAMPEYFHVVGGTIGFGLKAGQIPGFREFLQKVHPRKSVHNGFAKEFWEETFNCHLQEGAKGPLPVDTFVRSHEEGGNRLLNSSTAFRPLCTGDENINSVETPYMDYEHLRISYNVYLAVYSIAHALQDIYTCLPGRGLFTNGSCADIKKVEAWQVLKHLRHLNFTNNMGEQVTFDECGDLVGNYSIINWHLSPEDGSIVFKEVGYYNVYAKKGERLFINEEKILWSGFSREVPFSNCSRDCQAGTRKGIIEGEPTCCFECVECPDGEYSGETDASACDKCPDDFWSNENHTSCIAKEIEFLAWTEPFGIALTLFAVLGIFLTAFVLGVFIKFRNTPIVKATNRELSYLLLFSLLCCFSSSLFFIGEPQDWTCRLRQPAFGISFVLCISCILVKTNRVLLVFEAKIPTSFHRKWWGLNLQFLLVFLCTFMQILICIIWLYTAPPSSYRNHELEDEIIFITCHEGSLMALGSLIGYTCLLAAICFFFAFKSRKLPENFNEAKFITFSMLIFFIVWISFIPAYASTYGKFVSAVEVIAILAASFGLLACIFFNKVYIILFKPSRNTIEEVRSSTAAHAFKVAARATLRRPNISRKRSSSLGGSTGSIPSSSISSKSNSEDRFPQPERQKQQQPLSLTQQEQQQQPLTLHPQQQQQPQQPRCKQKVIFGSGTVTFSLSFDEPQKNAMAHRNSMRQNSLEAQRSNDTLGRHQALLPLQCADADSEMTIQETGLQGPMVGDHQPEMESSDEMSPALVMSTSRSFVISGGGSSVTENVLHS | 11.8
rat GPRC6A, wild type (receptor, UniProt Q70VB1 21-928, looked up, GPRC6A, rat; previously described myc-tagged rat GPRC6A-pEGFPN1 construct with the mGluR5 signal peptide upstream of the myc tag; Each copy carries one tag only, HA or myc; the HA-GPRC6A construct is not described; also called WT myc-GPRC6A; WT HA-GPRC6A; source: HEK293T, transiently transfected (Lipofectamine 2000), on cells; not shown: HA (one copy), N-terminal, kept; myc (the other copy), …) CHTPDDFVAITSPGHIMIGGLFAIHEKMLSSDDHPRQPQIQKCVGFEISVFLQTLAMIHSIEMINNSSLLSGVKLGYEIYDTCTEVTAAMAATLRFLSKFNCSRETVIFQCDYSSYVPRVKAIIGAGYSEISMAVSRMLNLQLMPQVSYESTAEILSDKIRFPSFLRTVPSDFYQTKAMAHLIRQSGWNWVGAITTDDDYGRLALNTFAIQAAENNVCIAFKEVLPAFLSDNTIEVRINQTLEKIIAEAQVNVIVVFLRKFHVFNLFNKAIERKISKIWIASDNWSTAAKIITIPNVKKLGKVVGFTFRRGNMSSFHSFLQTLHMYPSDNNKPLHEFAMLFSACKHIKDGDLSQCISNYSQATWTYDTTKTIETHLFKRNDFLWHYTEPGLIHSIQLAVLALGHAIRDLCQDRDCQKPNAFQPWELLAVLKNVTFTDGKNSFHFDAHGDLNTGYEVVLWKETNGLMTVTKMAEYDLQHDVFITTNQETKHEFRKLKQILSKCSKECIPGQMKKATGSQHSCCYECVNCPENHYSNETDMDHCLVCNNETHWAPVRSTMCFEKEVEYLDWDDSLALLLIALSLLGIAFVLAVGIIFTRNLKTPVVKSSGGLVVCYVMLACHALNFASTGFFIGEPQDFTCKTRQTLFGVSFTLCVSCILTKSLKILLAFSFDPTLKTFLKCLYRPVPIVLTCTGIQVVICTLWLVLAAPTVEENTSLPRVIILECEEGSALAFGTMLGYIAVLAFICFVFAFKGRKLPENYNEAKFLTFGMLIYFIAWITFIPVYATTFGKYLPAVEIIVILISNYGILCCTFFPKCYIILCKQKTNTKSVFLQMVYNYSAHSVDSLALSHVSLDSASHSTATTNPRPGNKTAACQNYKHLPVQVLAHTGMEKTMHASKTLHQKRSSSI | 9.8
